This note sets out measurements from IntAct's records for PubMed 11733528.

B1: Early protein (Human adenovirus C serotype 5 (HAdV-5)), P03255-2 (parent)
chain: MRHIICHGGVITEEMAASLLDQLIEEVLADNLPPPSHFEPPTLHELYDLDVTAPEDPNEEAVSQIFPDSVMLAVQEGIDLLTFPPAPGSPEPPHLSRQPEQPEQRALGPVSMPNLVPEVIDLTCHEAGFPPSDDEDEEGPVSEPEPEPEPEPEPARPTRRPKMAPAILRRPTSPVSRECNSSTDSCDSGPSNTPPEIHPVVPLCPIKPVAVRVGGRRQAVECIEDLLNEPGQPLDLSCKRPRP
partner: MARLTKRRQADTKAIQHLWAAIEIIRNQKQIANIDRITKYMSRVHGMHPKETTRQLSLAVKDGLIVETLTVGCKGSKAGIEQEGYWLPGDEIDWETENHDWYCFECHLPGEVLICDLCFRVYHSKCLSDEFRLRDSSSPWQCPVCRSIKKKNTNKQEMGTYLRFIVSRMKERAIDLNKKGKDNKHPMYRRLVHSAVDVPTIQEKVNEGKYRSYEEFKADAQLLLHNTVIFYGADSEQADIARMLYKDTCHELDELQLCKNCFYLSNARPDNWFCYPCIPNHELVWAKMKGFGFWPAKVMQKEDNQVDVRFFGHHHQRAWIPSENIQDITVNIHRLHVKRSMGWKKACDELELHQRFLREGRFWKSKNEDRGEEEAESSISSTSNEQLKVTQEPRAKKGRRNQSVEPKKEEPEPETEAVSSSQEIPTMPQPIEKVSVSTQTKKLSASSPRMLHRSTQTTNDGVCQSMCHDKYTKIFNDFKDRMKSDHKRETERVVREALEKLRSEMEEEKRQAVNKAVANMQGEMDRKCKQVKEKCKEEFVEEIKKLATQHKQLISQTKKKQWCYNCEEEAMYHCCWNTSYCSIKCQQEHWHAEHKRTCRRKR

In the assay the parent is B1. The following applies: with zmy11_human ZMYND11, Q15326.
Take L115A: the “effect of a mutation on the interaction” value is on record as “disrupting interaction”.
